# From patent US20180030149A1 (AVEO PHARMACEUTICALS, published 2018)
# Assays:
# human ErbB3 [1] = target: T1, human ErbB3 (human, UniProt P21860 20-1342); experiment: cell-based or functional assay
# human ErbB3 [2] = target: T1, human ErbB3; experiment: cell-based or functional assay; remark: listed apart in the source
# [3] = target: T2, recombinant human ErbB3/Fc fusion protein (human, UniProt P21860 20-643); experiment: ECL competition; inhibition of NRG1-β1 binding to plate-coated rhErbB3/Fc
# T2 construct: Bought (R&D Systems, Cat. No. 348-RB); the NRG1-α1 assay names Cat. No. 4518-RB instead; also called rhErbB3-Fc; rhErbB3/Fc; not shown: Fc portion of the bought fusion protein
# Method: (§1) MA2400 96-well standard binding plates (Meso Scale Discovery, Cat. No. L15XA-6) were coated with 50 μl of 0.5 μg/mL rhErbB3/Fc (R&D systems, Cat. No. 348-RB) in PBS (Invitrogen, Cat. No. 14040-133) for overnight at 4° C. with no agitation. The plates then were washed 3 times with PBS+0.1% Tween20 (Sigma P5927) and blocked with 200 μl of PBS containing 5% BSA (Sera Care Life Sciences, Cat. No. AP-4510-80) for 1.5 hour at room temperature. After washing the plates 3 times with PBS, 25 μl of the antibody dilutions were added to the plates for another hour at room temperature with agitation. […] The plates then were washed 3 times with PBS, and 150 μl of 1× read buffer (Meso Scale Discovery, Cat. No. R92TC-1) was added to each well before the plates were analyzed on a Sector® Imager 2400 (Meso Scale Discovery) instrument.
# [4] = target: T2, recombinant human ErbB3/Fc fusion …; experiment: ECL (MSD) competition: rhErbB3/Fc coated on the plate, antibody dilutions, then NRG1-β1 at 0.25 µg/ml; bound NRG1-β1 detected
# Method: as §1
# [5] = target: T2, recombinant human ErbB3/Fc fusion …; experiment: SPR Biacore T100, 25 C; antibody captured on anti-mouse IgG, rhErbB3-Fc injected
# Method: Rabbit anti-mouse IgGs (Biacore, Cat. No. BR-1008-38) were immobilized on carboxymethylated dextran CM4 sensor chips (Biacore, Cat. No. BR-1005-34) by amine coupling (BIAcore, Cat. No. BR-1000-50) using a standard coupling protocol according to vendor's instructions. The analyses were performed at 25° C., using PBS (Invitrogen, Cat. No. 14040-133) containing 0.05% surfactant P20 (Biacore, Cat. No. BR-1000-54) as running buffer.
# The antibodies were captured in individual flow cells at a flow rate of 10 μl/minute. Injection time was varied for each antibody to yield an Rₘₐₓ between 30 and 60 RU. […] The dissociation phase was monitored for up to 3600 seconds. The surface was then regenerated with two 60-seconds injection of 10 mM Glycine-HCl, pH 1.7 (made from Glycine pH 1.5 (Biacore, Cat. No. BR-1003-54) and pH 2.0 (Biacore, Cat. No. BR-1003-55)) at a flow rate of […].
# Kinetic parameters were determined using the kinetic function of the BIAevaluation software (Biacore) with double reference subtraction. Kinetic parameters for each antibody, kₐ (association rate constant), kd (dissociation rate constant) and KD (equilibrium dissociation constant) were determined.
Binder,inhibition of NRG1-β1 induced phosphorylation of Akt in MCF7 and DU145 cells (ELISA) (human ErbB3 [1]),"inhibition of NRG1-β1 induced phosphorylation of ErbB3 in SKBR-3 cells (ELISA, 5 µg/ml antibody) (human ErbB3 [1])","IC50, NRG1-β1 dependent proliferation of MCF7 cells (MTT) (human ErbB3 [2])",IC50 [3],IC50 (read off the curve) [4],Kd [5],koff [5],kon [5]
"12A07 (antibody, mouse IgG1, kappa, V domains shown, Murine IgG1/kappa, from hybridoma; also called anti-hErbB3 monoclonal antibody 12A07) VH: QVQLLQPGAELVRPGTSVKLSCKTSGYTFSSYWMHWVKQRPGQGLEWIGMIDPSDVYTNYNPKFKGKATLTVDTSSSTAYMQLSSLTSEDSAVYYCARNYSGDYWGQGTTLTVSS VL: DVLMTQIPLSLPVSLGDQASISCRSSQSIVHSNGNTYLEWYLQKPGQSPKLLIYKVSNRFSGVPDRFSGSGSGTDFTLKISRVEAEDLGVYYCFQGSYVPWTFGGGTKLEIKR",≥ 80%,≥ 50%,0.74 nM,0.235 nM,~0.2 nM,0.3 nM,0.00019 s⁻¹,620000 M⁻¹ s⁻¹
"18H02 (antibody, mouse IgG1, kappa, V domains shown, Murine IgG1/kappa, from hybridoma; also called anti-hErbB3 monoclonal antibody 18H02) VH: QIQLVQSGPELKKPGEAVKISCKSSGYTFTTYGMSWVKQAPGRALKWMGWINTYSGVPTYADDFKGRFAFSLESSASTAYLQINNLKNEDTATYFCARGRDGYQVAWFAYWGQGTLVTVSA VL: ETTVTQSPASLSMAIGDKVTIRCITSTDIDDDMNWFQQKPGEPPKLLISEGNTLRPGVPSRFSGSGYGTDFIFTIENMLSEDVADYYCLQSDNLPYTFGGGTKLEIKR",≥ 80%,≥ 50%,1 nM,0.346 nM,~0.3 nM,0.091 nM,2.5e-05 s⁻¹,280000 M⁻¹ s⁻¹

# Further binders by falling IC50 [3], results first:
inhibition of NRG1-β1 induced phosphorylation of Akt in MCF7 and DU145 cells (ELISA) (human ErbB3 [1]),"inhibition of NRG1-β1 induced phosphorylation of ErbB3 in SKBR-3 cells (ELISA, 5 µg/ml antibody) (human ErbB3 [1])","IC50, NRG1-β1 dependent proliferation of MCF7 cells (MTT) (human ErbB3 [2])",IC50 [3],IC50 (read off the curve) [4],Kd [5],koff [5],kon [5],Binder
≥ 80%,≥ 50%,0.39 nM,0.337 nM,~0.3 nM,0.0065 nM,9.2e-06 s⁻¹,1.5e+06 M⁻¹ s⁻¹,"24C05 (antibody, mouse IgG1, kappa, Murine IgG1/kappa, from hybridoma; also called murine 24C05; 24C05 IgG1) heavy: EVQLVESGGGLVKPGGSLKLSCAASGFTFSDYAMSWVRQTPEKRLEWVATISDGGTYTYYPDNVKGRFTISRDNAKNNLYLQMSHLKSEDTAMYYCAREWGDYDGFDYWGQGTTLTVSSAKTTPPSVYPLAPGSAAQTNSMVTLGCLVKGYFPEPVTVTWNSGSLSSGVHTFPAVLQSDLYTLSSSVTVPSSTWPSQTVTCNVAHPASSTKVDKKIVPRDCGCKPCICTVPEVSSVFIFPPKPKDVLTITLTPKVTCVVVDISKDDPEVQFSWFVDDVEVHTAQTQPREEQFNSTFRSVSELPIMHQDWLNGKEFKCRVNSAAFPAPIEKTISKTKGRPKAPQVYTIPPPKEQMAKDKVSLTCMITDFFPEDITVEWQWNGQPAENYKNTQPIMDTDGSYFVYSKLNVQKSNWEAGNTFTCSVLHEGLHNHHTEKSLSHSPGK light: DIQMTQSPSSLSASLGERVSLTCRASQEISGYLSWLQQKPDGTIKRLIYAASTLDSGVPKRFSGSRSGSDYSLTIGSLESEDLADYYCLQYDSYPYTFGGGTKLEIKRADAAPTVSIFPPSSEQLTSGGASVVCFLNNFYPRDINVKWKIDGSERQNGVLNSWTDQDSKDSTYSMSSTLTLTKDEYERHNSYTCEATHKTSTSPIVKSFNRNEC"
≥ 80%,≥ 50%,1.62 nM,0.242 nM,~0.2 nM,0.32 nM,0.00022 s⁻¹,700000 M⁻¹ s⁻¹,"22A02 (antibody, mouse IgG1, kappa, V domains shown, Murine IgG1/kappa, from hybridoma; also called anti-hErbB3 monoclonal antibody 22A02) VH: QVQLQQPGAELVRPGTSVKLSCKASGYTFTNYWMHWVKQRPGQGLEWIGMIDPSDSYTNYNPKFKGKATLTVDTSSSTAYMQLSSLTSEDSAVYYCARNYSGDYWGQGTTLTVSS VL: DVLMTQTPLSLPVSLGDQASISCRSSQSIVHSNGNTYLEWYLQKPGQSPKLLIYKVSNRFSGVPDRFSGSGSGTDFTLKISRVEAEDLGVYYCFQGSYVPWTFGGGTKLEIKR"
